We go through one molecule from patent CN108314731A (ZHUHAI TAINUO MAIBO BIOTECHNOLOGY CO LTD; GUANGZHOU …, dated 2018).

This experiment addresses 破伤风类毒素 (tetanus toxoid) (破伤风杆菌 (Clostridium tetani), UniProt P04958 2-1315).

Chain of 破伤风类毒素 (tetanus toxoid) (P04958 2-457 limits assumed, chain 1 of 2): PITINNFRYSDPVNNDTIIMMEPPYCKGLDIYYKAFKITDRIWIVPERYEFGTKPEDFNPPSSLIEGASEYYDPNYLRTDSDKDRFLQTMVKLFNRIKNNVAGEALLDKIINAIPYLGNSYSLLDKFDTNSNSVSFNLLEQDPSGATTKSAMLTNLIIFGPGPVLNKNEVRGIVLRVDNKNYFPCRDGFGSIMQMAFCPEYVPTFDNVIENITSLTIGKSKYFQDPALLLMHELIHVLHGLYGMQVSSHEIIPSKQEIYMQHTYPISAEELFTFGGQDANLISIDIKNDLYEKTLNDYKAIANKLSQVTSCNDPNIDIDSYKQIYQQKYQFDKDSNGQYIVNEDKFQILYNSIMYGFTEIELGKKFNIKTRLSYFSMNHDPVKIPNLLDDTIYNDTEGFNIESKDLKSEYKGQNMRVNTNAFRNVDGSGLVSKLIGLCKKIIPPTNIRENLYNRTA
Chain of 破伤风类毒素 (tetanus toxoid) (P04958 458-1315 limits assumed, chain 2 of 2): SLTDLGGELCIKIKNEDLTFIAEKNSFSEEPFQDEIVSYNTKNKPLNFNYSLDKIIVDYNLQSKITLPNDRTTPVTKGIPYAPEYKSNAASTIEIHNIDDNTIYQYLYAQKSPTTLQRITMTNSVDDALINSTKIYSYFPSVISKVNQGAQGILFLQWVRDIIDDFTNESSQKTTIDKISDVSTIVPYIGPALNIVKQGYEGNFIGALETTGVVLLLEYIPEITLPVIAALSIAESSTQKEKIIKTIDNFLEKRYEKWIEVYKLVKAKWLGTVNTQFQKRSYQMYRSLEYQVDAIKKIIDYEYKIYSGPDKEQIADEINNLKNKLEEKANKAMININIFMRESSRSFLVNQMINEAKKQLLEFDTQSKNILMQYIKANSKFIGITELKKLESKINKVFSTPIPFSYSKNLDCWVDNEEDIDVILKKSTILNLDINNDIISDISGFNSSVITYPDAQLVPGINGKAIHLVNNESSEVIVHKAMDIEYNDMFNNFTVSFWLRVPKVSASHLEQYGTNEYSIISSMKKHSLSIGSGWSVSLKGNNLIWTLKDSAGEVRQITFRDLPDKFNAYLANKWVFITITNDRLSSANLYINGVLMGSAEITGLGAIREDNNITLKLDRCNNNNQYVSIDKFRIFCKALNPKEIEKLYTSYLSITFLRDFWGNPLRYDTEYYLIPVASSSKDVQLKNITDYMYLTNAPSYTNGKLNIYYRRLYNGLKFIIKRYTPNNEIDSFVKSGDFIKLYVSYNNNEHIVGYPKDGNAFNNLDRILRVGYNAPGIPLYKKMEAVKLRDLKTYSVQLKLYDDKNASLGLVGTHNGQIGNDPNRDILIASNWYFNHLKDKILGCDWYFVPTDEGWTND

B1: TRN0010抗体 (全人源抗破伤风毒素中和抗体) (antibody, V domains shown)
VH: QVQLQESGPGLVKPSETLSLRCTVSGGSISSYYWSWFRQPPGKGLEWIGYVHYSGSTNYNPSLKSRFTLSVDTSKSQFSLRLRSVTAADTAIYYCARDKYQTDVSDIWGQGTVVTVSS
VL: DIQMTQSPGTLSLSPGERATLSCRASQSITSSFLAWYQQKPGQAPRLLIYGASSRATGIPDRFSGSGSGTDFILTISRLEPEDFAVYYCQQYDTSRTFGQGTTVEIK
One may read the Kd as the free concentration of one partner at which half of the binding sites on the other are occupied at equilibrium, for simple one-to-one binding. A higher Kd goes with weaker binding. For orientation: koff means the first-order rate constant of dissociation. In general, kon refers to the rate constant with which the complex forms. Read a low kon as slower complex formation. Molecule B1 yielded a Kd of 3.68 nM, an off-rate constant (koff) of 0.000153 s⁻¹ and a kon of 41500 M⁻¹ s⁻¹.
